From patent publication US10370438B2, “Histamine-releasing factor (HRF), HRF-receptor and methods of modulating inflammation” (LA JOLLA INSTITUTE FOR ALLERGY AND IMMUNOLOGY, priority 2010, dated 2019)
Each block holds one molecule with its values, some of them ahead of it.

Key:
[1] = system: C57BL/6 mice; assay: OVA-induced mast cell-dependent airway inflammation model; assay type: in vivo, mouse; conditions: intranasal pretreatment before each OVA challenge
Experimental: Mice were sensitized with OVA (10 μg in 0.1 ml saline) at days 0, 7, 14, 21, 28, and 35. Sensitized mice were challenged with OVA (20 μg in 20 μl saline) at days 40, 43 and 46. Some mice were pretreated with GST, GST-N19 (400 μg in PBS), or N19 peptide (40 μg in 2% DMSO-containing PBS) 15 minutes before OVA challenge. Twenty-four hours after the last challenge, lung function in response to methacholine was tested using FlexiVent system (SCIREQ Scientific Respiratory Equipment). Mice were sacrificed and plasma, BAL fluids, and lung tissues were collected. Cells in BAL fluids were counted, and specific cell numbers were calculated after May-Giemsa staining of Cytospin preparations. Immunofluorescence microscopy was performed on membrane-permeabilized and non-permeabilized lung tissues. For staining of lung tissues by staining of H&E and periodic acid-Schiff (PAS), lung tissues were fixed with formalin and embedded in paraffin. For measurement of cytokine levels in lung tissues, lung homogenates were prepared (Oyoshi et al., Immunol. 120:303 (2007)) and cytokines quantified by ELISA. HRF in lung homogenates and plasma was SDS-PAGE and immunoblotting with anti-HRF Ab (Santa Cruz Biotechnology).
Asthma is a type 2 helper T cell-driven, chronic inflammatory lung disease (Wills-Karp, Annu Rev Immunol 17, 255 (1999)). To study HRF involvement in allergic airway inflammation, an airway inflammation model was utilized, in which mast cells are implicated in amplifying antigen-dependent chronic inflammation (Williams, et al., J Exp Med 192, 455 (Aug. 7, 2000)). C57BL/6 mice were first sensitized with OVA (10 μg) at days 0, 7, 14, 21, 28 and 35. At days 40, 43 and 46, mice were intranasally challenged with OVA (20 μg) or PBS. Some mice were intranasally pretreated with GST or GST-N19 (400 μg) before every OVA challenge. Twenty-four hours after the last challenge, mice were sacrificed and BAL fluids and lung tissues were collected. Lung tissues were homogenized.

[2] = system: HRF/IgE binding; assay: Competition ELISA of IgE binding to GST-mHRF-coated wells; set-up: species or system mouse; conditions: competitor incubated 2 hours
Experimental: To identify an inhibitor of HRF/Ig interactions to dissect the extracellular function (═HRF function as a cytokine) separate from the intracellular functions in vivo settings, the major Ig-interacting HRF sequence was studied as a specific inhibitor of HRF/Ig interactions. IgE molecules were incubated in GST-mHRF-coated wells in the presence or absence (−) of the indicated concentrations of competitors, GST-N19, GST-mHRF or mHRF-His6 for 2 hours. After incubation, bound-IgE was detected by incubation with biotinylated anti-mouse IgE mAb, followed by streptavidin-HRP. […] By contrast, none of the shorter mHRF peptides tested (residues 1-6, 1-12, 5-19, and 9-19) inhibited HRF/IgE binding. GST-N19 inhibited HRF/IgG binding as well.

[3] = system: peritoneal mast cells; assay: β-hexosaminidase release (degranulation); assay type: cell-based, mouse; conditions: cells sensitized with HRF-reactive IgE, 40 minutes
Experimental: Mast cells were sensitized with 0.5 μg/ml IgE overnight. The mast cells were stimulated with TNP26-BSA or mHRF-His6 for 40 minutes in Tyrode's buffer. The amount of β-hexosaminidase (β-hex) in both supernatants and cell pellets was measured. The percentage of β-hex release was calculated as follows: % release=β-hex in supernatants/β-hex in supernatants+β-hex in cell pellets)
These hypersensitivity reactions appear to be dependent on mast cells, as the reactions were abolished in mast cell-deficient Kit^W-sh/W-sh mice and restored in Kit^W-sh/W-sh mice engrafted with WT BMMCs (FIG. 6A). […] Therefore, HRF and HRF-reactive IgE can induce anaphylactic responses in a mast cell- and FcεRI-dependent manner. Consistent with this, peritoneal mast cells sensitized with the HRF-reactive, but not the HRF-nonreactive, IgE were activated upon stimulation with HRF (FIG. 6D). After 40 minutes, both supernatants and cell pellets were collected and β-hexosaminidase release was analyzed (FIG. 6D).

[4] = system: IgE-sensitized mice; assay: Passive cutaneous anaphylaxis induced by mHRF in IgE-sensitized ears; assay type: in vivo, mouse; conditions: 8 hours after injection in IgE-sensitized ears
Experimental: Mouse ears were first sensitized with 0.5 μg anti-TNP (C38-2 in the right ear and C48-2 in the left ear) IgE. After 24 hours, Evans' blue dye was intravenously (i.v.) injected, and TNP26-BSA (Ag: 0.1 μg) or mHRF-His6 (10 μg) were immediately injected into the ears. The acute (30 minute) reactions were analyzed by measurement of Evans' blue dye leakage. The ear thickness was measured using a micrometer (Mitutoyo) at 0.5, 1, 2, 4, 6, 8, 12, and 24 hours after mHRF-His6challenge. As a negative control, saline was injected into the ears in place of antigen or HRF challenge. IgG-mediated response was performed by sensitization with 2 μg IgG1 (in place of anti-TNP IgE) and challenge with anti-mouse IgG1 Ab (0.6 μg: Southern Biotechnology, in place of TNP26-BSA). Engraftmanet of Kit^W-sh/W-sh mice with BMMCs was performed 6 weeks before study (Nakano, T., et al. J Exp Med 162:1025-1043 (1985)). In some studies, mice were sensitized and stimulated as described above but without Evans blue.
Here, mice were sensitized with the IgE. […] After 30 minutes, mice were sacrificed, and the amount of Evans blue dye leaked from the ears measured. […]
mHRF-His6 (H) was injected in IgE-sensitized ears and LPR was analyzed by measurement of ear thickness at 8 hours after injection. […]
IGELa2 IgE was intradermally injected into ears. […] Eight hours after injection, the ear thickness was measured (FIG. 7).

[5] = system: Unimmunized mice; assay: Intranasal HRF in naïve mice, BAL differential cell counting; assay type: in vivo, mouse; conditions: for Lung inflammation: naïve C57BL/6 (WT) mice, 40 μg intranasally three times
Experimental: In light of the presence of HRF-reactive IgG in naïve mice and recent studies reporting the role of mast cells in the initiation of adaptive immune responses (Galli, et al., Nat Immunol 6, 135 (February, 2005)), the effect of HRF on naïve mice was assessed. Unimmunized C57BL/6 (WT), μMT, and FcRγ^−/− mice (n=5 per cohort) were treated intranasally with 40 μg mHRF-His6 three times every third day. PBS served as a negative control. BAL procedures were conducted 24 hours after the last HRF administration. Differential cell counting was performed on cytospin preparations stained with May-Giemsa. […] FcRγ is shared by multiple Fc receptors including FcεRI.

[6] = system: IgE; assay: ELISA with monomeric and dimeric HRF-His6 as capturing agent; assay type: binding, mouse
Experimental: Monomeric and dimeric HRF-His6 proteins purified by HPLC were coated onto plastic wells. After blocking, 206 (HRF-nonreactive) and IGELa2 (HRFreactive) IgEs were incubated. Bound IgEs were detected by incubation with biotin-conjugated anti-mouse IgE antibody, followed by incubation with horseradish peroxidase-conjugated streptavidin. The absorbance at 450 nm was measured after development of the color. […] The dimerizing ability of HRF with multiple Ig-binding sites strongly indicates the potential of HRF to crosslink Ig-bound Fc receptors.

Molecule: N19 peptide: synthetic non-fusion N19 peptide, N-terminal 19 residue peptide of HRF (MIIYRDLISHDELFSDIYK; UniProt P63028 1-19, looked up, fragment)
Airway inflammation [1]: abrogated

Molecule: residues 1-6: shorter mHRF peptide, residues 1-6 (MIIYRD; UniProt P63028 1-6, looked up, fragment)
Inhibition of IgE binding to immobilized GST-mHRF [2]: none

Molecule: residues 1-12: shorter mHRF peptide, residues 1-12 (MIIYRDLISHDE; UniProt P63028 1-12, looked up, fragment)
Inhibition of IgE binding to immobilized GST-mHRF [2]: none

Molecule: residues 9-19: shorter mHRF peptide, residues 9-19 (SHDELFSDIYK; UniProt P63028 9-19, looked up, fragment)
Inhibition of IgE binding to immobilized GST-mHRF [2]: none

Continued, in another order:

Inhibition of IgE binding to immobilized GST-mHRF [2]: none
Molecule: residues 5-19: shorter mHRF peptide, residues 5-19 (RDLISHDELFSDIYK; UniProt P63028 5-19, looked up, fragment)

Binding to IgE ([6]; dimeric form as capturing agent): can bind | Binding to IgE ([6]; monomeric form as capturing agent): can bind
B1: mHRF-His6: C-terminally hexahistidine-tagged recombinant mouse histamine releasing factor (protein)
chain: MIIYRDLISHDELFSDIYKIREIADGLCLEVEGKMVSRTEGAIDDSLIGGNASAEGPEGEGTESTVVTGVDIVMNHHLQETSFTKEAYKKYIKDYMKSLKGKLEEQKPERVKPFMTGAAEQIKHILANFNNYQFFIGENMNPDGMVALLDYREDGVTPFMIFFKDGLEMEKCHHHHHH
Mast cell activation (β-hexosaminidase release) [3]: activated | Late-phase reaction (LPR), ear swelling [4]: as high as that induced by antigen | HRF effects (lung inflammation) ([5]; B cell-deficient (μMT) or FcRγ−/− mice): not observed | Lung inflammation [5]: induced weak lung inflammation | Lung inflammation ([5]; listed as HRF): weak lung inflammation is induced | HRF-induced lung inflammation ([5]; naïve FcεRIα−/− mice): abrogated or reduced | Neutrophils and eosinophils in BAL fluids ([5]; naïve WT mice): increased
